Assay results from patent US20110300158A1 (GlaxoSmithKline, published 2011).
Substitutions are numbered along the chain they refer to.

Tests used:
mouse serum albumin [1] = target: T1, mouse serum albumin (mouse, UniProt P07724 25-608); assay: SPR (BIAcore), second independent experiment
T1 construct: also called MSA; mouse SA

Human Serum Albumin [2] = target: T2, Human Serum Albumin (human, UniProt P02768 25-609); assay: SPR (BIAcore), second independent experiment
T2 construct: immobilised on CM5 chips; also called HSA; human SA

[3] = target: T3, Cynomolgus monkey Serum Albumin (Cynomolgus monkey, UniProt A2V9Z4 25-608); assay: SPR (BIAcore), second independent experiment
T3 construct: also called CSA; cyno SA

Rat Serum Albumin [4] = target: T4, Rat Serum Albumin (rat, UniProt P02770 25-608); assay: SPR (BIAcore), second independent experiment
T4 construct: also called RSA; rat SA

mouse serum albumin [5] = target: T1, mouse serum albumin; assay: SPR (BIAcore)
Method: (§1) Binding to HSA, CSA, MSA and RSA by BIAcore was confirmed using purified protein at 3 concentrations 1 μM, 500 nM and 50 nM.

Human Serum Albumin [6] = target: T2, Human Serum Albumin; assay: SPR (BIAcore)
Method: as §1

[7] = target: T3, Cynomolgus monkey Serum Albumin; assay: SPR (BIAcore)
Method: as §1

Rat Serum Albumin [8] = target: T4, Rat Serum Albumin; assay: SPR (BIAcore)
Method: as §1

Rat Serum Albumin [9] = target: T4, Rat Serum Albumin; assay: SPR (BIAcore), DOM1m-21-23 fusion against unfused dAb
Rat Serum Albumin [10] = target: T4, Rat Serum Albumin; assay: SPR (BIAcore), DOM1m-21-23 fusion; albumin taken as RSA from the sentence before; fused to DOM1m21-23

T3 sequence (A2V9Z4 25-608 limits assumed): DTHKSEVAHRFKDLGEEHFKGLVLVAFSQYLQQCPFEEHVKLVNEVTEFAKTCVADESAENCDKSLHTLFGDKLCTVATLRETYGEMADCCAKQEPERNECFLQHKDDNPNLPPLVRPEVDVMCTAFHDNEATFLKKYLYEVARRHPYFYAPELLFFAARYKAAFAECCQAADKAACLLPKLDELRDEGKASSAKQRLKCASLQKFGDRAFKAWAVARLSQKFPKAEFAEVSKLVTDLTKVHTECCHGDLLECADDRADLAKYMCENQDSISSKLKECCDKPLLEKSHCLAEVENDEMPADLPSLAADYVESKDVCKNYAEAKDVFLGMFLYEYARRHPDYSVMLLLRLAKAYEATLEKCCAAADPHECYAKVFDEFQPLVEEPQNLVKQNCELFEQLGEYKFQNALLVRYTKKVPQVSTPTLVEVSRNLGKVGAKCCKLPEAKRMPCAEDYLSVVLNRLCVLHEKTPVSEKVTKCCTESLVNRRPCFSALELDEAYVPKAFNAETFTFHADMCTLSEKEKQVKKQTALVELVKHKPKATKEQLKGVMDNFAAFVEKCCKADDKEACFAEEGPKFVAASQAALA
T1 sequence (P07724 25-608 limits assumed): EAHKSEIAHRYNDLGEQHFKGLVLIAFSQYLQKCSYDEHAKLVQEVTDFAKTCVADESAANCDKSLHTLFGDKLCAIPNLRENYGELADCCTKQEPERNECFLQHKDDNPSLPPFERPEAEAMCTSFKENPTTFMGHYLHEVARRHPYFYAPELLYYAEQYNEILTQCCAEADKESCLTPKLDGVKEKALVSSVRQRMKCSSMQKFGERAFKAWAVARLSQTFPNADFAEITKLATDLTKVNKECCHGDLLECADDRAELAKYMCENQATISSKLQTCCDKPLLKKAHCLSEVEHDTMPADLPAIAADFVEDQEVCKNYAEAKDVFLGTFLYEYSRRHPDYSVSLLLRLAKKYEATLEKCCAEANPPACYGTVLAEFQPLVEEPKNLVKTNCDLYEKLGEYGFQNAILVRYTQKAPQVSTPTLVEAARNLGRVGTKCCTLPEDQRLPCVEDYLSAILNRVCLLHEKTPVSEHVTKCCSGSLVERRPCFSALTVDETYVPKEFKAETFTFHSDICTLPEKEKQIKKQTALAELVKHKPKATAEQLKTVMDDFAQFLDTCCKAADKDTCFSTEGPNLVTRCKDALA
T4 sequence (P02770 25-608 limits assumed): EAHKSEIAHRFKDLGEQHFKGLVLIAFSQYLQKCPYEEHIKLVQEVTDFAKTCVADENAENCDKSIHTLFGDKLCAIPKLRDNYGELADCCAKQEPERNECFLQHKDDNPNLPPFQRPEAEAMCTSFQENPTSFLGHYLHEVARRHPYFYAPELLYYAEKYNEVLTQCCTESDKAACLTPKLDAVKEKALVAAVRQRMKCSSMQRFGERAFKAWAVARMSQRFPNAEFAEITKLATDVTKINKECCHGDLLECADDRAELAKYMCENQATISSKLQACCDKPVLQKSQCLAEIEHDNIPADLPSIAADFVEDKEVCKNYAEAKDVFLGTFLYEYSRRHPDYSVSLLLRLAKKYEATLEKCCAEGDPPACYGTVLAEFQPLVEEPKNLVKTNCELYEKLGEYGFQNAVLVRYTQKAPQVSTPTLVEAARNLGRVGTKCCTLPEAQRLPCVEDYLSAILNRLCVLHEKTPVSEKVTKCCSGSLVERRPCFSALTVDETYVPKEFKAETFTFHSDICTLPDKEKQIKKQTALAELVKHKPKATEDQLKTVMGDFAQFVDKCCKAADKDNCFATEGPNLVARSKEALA

B1: DOM7h-14-28 (other)
VL: DIQMTQSPSSLSASVGDRVTITCRASQWIGSQLSWYQQKPGKAPKLLIMWRSSLQSGVPSRFSGSGSGTDFTLTISSLQPEDFATYYCAQGAALPKTFGQGTKVEIKR
notes: Vk dAb; tag not included
- Kd (mouse serum albumin [1]): 31 nM
- koff (mouse serum albumin [1]): 0.0715 s⁻¹
- kon (mouse serum albumin [1]): 2.28e+06 M⁻¹ s⁻¹
- Kd (Human Serum Albumin [2]): 8260 nM
- koff (Human Serum Albumin [2]): 0.056 s⁻¹
- kon (Human Serum Albumin [2]): 6780 M⁻¹ s⁻¹
- Kd [3]: 136 nM
- koff [3]: 0.134 s⁻¹
- kon [3]: 980000 M⁻¹ s⁻¹
- Kd (Rat Serum Albumin [4]): 140 nM
- koff (Rat Serum Albumin [4]): 0.114 s⁻¹
- kon (Rat Serum Albumin [4]): 830000 M⁻¹ s⁻¹
- Kd (mouse serum albumin [5]): 26 nM
- koff (mouse serum albumin [5]): 0.034 s⁻¹
- kon (mouse serum albumin [5]): 1.6e+06 M⁻¹ s⁻¹
- Kd (Human Serum Albumin [6]): 30 nM
- koff (Human Serum Albumin [6]): 0.033 s⁻¹
- kon (Human Serum Albumin [6]): 1.24e+06 M⁻¹ s⁻¹
- Kd [7]: 66 nM
- koff [7]: 0.13 s⁻¹
- kon [7]: 2.5e+06 M⁻¹ s⁻¹
- Kd (Rat Serum Albumin [8]): 45 nM
- koff (Rat Serum Albumin [8]): 0.07 s⁻¹
- kon (Rat Serum Albumin [8]): 2.1e+06 M⁻¹ s⁻¹

B2: DOM7h-14-36 (other)
VL: B1 VL with A92F, A93K, L94K, K96R
notes: Vk dAb; tag not included
- Kd (mouse serum albumin [1]): 33 nM
- koff (mouse serum albumin [1]): 0.0706 s⁻¹
- kon (mouse serum albumin [1]): 2.11e+06 M⁻¹ s⁻¹
- Kd (Human Serum Albumin [2]): 1260 nM
- koff (Human Serum Albumin [2]): 0.067 s⁻¹
- kon (Human Serum Albumin [2]): 54000 M⁻¹ s⁻¹
- Kd [3]: 7830 nM
- koff [3]: 0.11 s⁻¹
- kon [3]: 14300 M⁻¹ s⁻¹
- Kd (Rat Serum Albumin [4]): 6120 nM
- koff (Rat Serum Albumin [4]): 0.0554 s⁻¹
- kon (Rat Serum Albumin [4]): 9000 M⁻¹ s⁻¹
- Kd (mouse serum albumin [5]): 35 nM
- koff (mouse serum albumin [5]): 0.023 s⁻¹
- kon (mouse serum albumin [5]): 870000 M⁻¹ s⁻¹
- Kd (Rat Serum Albumin [8]): 30 nM
- koff (Rat Serum Albumin [8]): 0.029 s⁻¹
- kon (Rat Serum Albumin [8]): 1.55e+06 M⁻¹ s⁻¹

B3: DOM7h-11 (other)
VL: DIQMTQSPSSLSASVGDRVTITCRASRPIGTTLSWYQQKPGKAPKLLIWFGSRLQSGVPSRFSGSGSGTDFTLTISSLQPEDFATYYCAQAGTHPTTFGQGTKVEIKR
notes: Parental Vk dAb; also called DOM7h-12
- Kd (Human Serum Albumin [6]): 2800 nM
- koff (Human Serum Albumin [6]): 0.641 s⁻¹
- kon (Human Serum Albumin [6]): 700000 M⁻¹ s⁻¹

B4: DOM7h-11-15 (other)
VL: B3 VL with T32M, W49L, F50A, G51F
notes: Vk dAb; pDOM5 myc tag not included; also called DOM7-11-15; DOM7h-12-15
- kon [7]: 5.8e+06 M⁻¹ s⁻¹

B5: DOM7h-11-12/DOM1m-21-23 fusion DMS number 5516 (bispecific antibody)
chain: EVQLLESGGGLVQPGGSLRLSCAASGFTFNRYSMGWLRQAPGKGLEWVSRIDSYGRGTYYEDPVKGRFSISRDNSKNTLYLQMNSLRAEDTAVYYCAKISQFGSNAFDYWGQGTQVTVSSASTSGPSDIQMTQSPSSLSASVGDRVTITCRASRPIGTMLSWYQQKPGKAPKLLILFGSRLQSGVPSRFSGSGSGTDFTLTISSLQPEDFATYYCAQAGTHPTTFGQGTKVEIKRAAAEQKLISEEDLN
notes: also called DMS5516
- fold decrease in affinity compared to the unfused AlbudAb (Rat Serum Albumin [9]): 2 fold

B6: DOM7h-11-15/DOM1m-21-23 fusion DMS number 5517 (bispecific antibody)
chain: B5 chain with F177A, G178F
notes: also called DMS5517
- fold decrease in affinity compared to the unfused AlbudAb (Rat Serum Albumin [9]): 2 fold

B7: DOM7h-11/DOM1m-21-23 fusion DMS number 5515 (bispecific antibody)
chain: B5 chain with M159T, L176W
notes: also called DMS5515; 'the DOM7h-12 clone' when fused
- Kd (Rat Serum Albumin [10]): 2800 nM
